In assay [1] the target is FLAG-tagged VEGF^121 (WT), a soluble splicing variant of VEGFA. Nature of the assay: non-reducing SDS-PAGE and FLAG immunoblot; FLAG-VEGF^121 immunopurified with FLAG-M1 antibody from conditioned media of transfected WT HeLa (and WT MDAMB231^m) cells; reducing against non-reducing immunoblot; disulfide-bonded homodimer against monomer.
Assay [2] has the same target. Kind of assay: non-reducing SDS-PAGE and FLAG immunoblot; FLAG-VEGF^121 immunopurified with FLAG-M1 antibody from conditioned media of transfected ERO1 KO HeLa (and ERO1 KO MDAMB231^m) cells; reducing against non-reducing immunoblot; disulfide-bonded homodimer against monomer. In general terms: In western blotting, separated proteins are transferred to a membrane and probed.

As to “FLAG-tagged VEGF^121 (WT), a soluble splicing variant of VEGFA (ligand)”, in assay [1], the stoichiometry N (usually a count of units in the complex or per binding partner) worked out at 2. In assay [2], this substance registered a monomer as percent of the total secreted VEGF^121 of 80%.

The values above are taken from article PMC7932925.
